# Results from the Human Domainome abundance scans (Beltran et al. 2025).
# ± gives the uncertainty stated by the source.
# B1: Ankyrin-3, residues 4094 to 4171; numbered along this chain, Q12955 (parent)
# chain: MAIVADHLGLSWTELARELNFSVDEINQIRVENPNSLISQSFMLLKKWVTRDGKNATTDALTSVLTKINRIDIVTLLE
# Variants of: B1
# Test: abundance fitness (aPCA) (normalised: wild type 0, dead -1); higher = more abundant; growth selection in yeast, the domain comes from the species named
# Details: Homo sapiens
row,Variant,abundance fitness
1,YAIVADHLGLSWTELARELNFSVDEINQIRVENPNSLISQSFMLLKKWVTRDGKNATTDALTSVLTKINRIDIVTLLE,0.23 ± 0.45
2,EAIVADHLGLSWTELARELNFSVDEINQIRVENPNSLISQSFMLLKKWVTRDGKNATTDALTSVLTKINRIDIVTLLE,-0.365 ± 0.13
3,DAIVADHLGLSWTELARELNFSVDEINQIRVENPNSLISQSFMLLKKWVTRDGKNATTDALTSVLTKINRIDIVTLLE,-0.643 ± 0.42
4,KAIVADHLGLSWTELARELNFSVDEINQIRVENPNSLISQSFMLLKKWVTRDGKNATTDALTSVLTKINRIDIVTLLE,-0.421 ± 0.1
5,TAIVADHLGLSWTELARELNFSVDEINQIRVENPNSLISQSFMLLKKWVTRDGKNATTDALTSVLTKINRIDIVTLLE,-0.801 ± 0.4
6,GAIVADHLGLSWTELARELNFSVDEINQIRVENPNSLISQSFMLLKKWVTRDGKNATTDALTSVLTKINRIDIVTLLE,-0.566 ± 0.11
7,NAIVADHLGLSWTELARELNFSVDEINQIRVENPNSLISQSFMLLKKWVTRDGKNATTDALTSVLTKINRIDIVTLLE,-0.099 ± 0.28
8,HAIVADHLGLSWTELARELNFSVDEINQIRVENPNSLISQSFMLLKKWVTRDGKNATTDALTSVLTKINRIDIVTLLE,-0.587 ± 0.44
9,IAIVADHLGLSWTELARELNFSVDEINQIRVENPNSLISQSFMLLKKWVTRDGKNATTDALTSVLTKINRIDIVTLLE,-0.321 ± 0.37
10,AAIVADHLGLSWTELARELNFSVDEINQIRVENPNSLISQSFMLLKKWVTRDGKNATTDALTSVLTKINRIDIVTLLE,-0.322 ± 0.1
11,RAIVADHLGLSWTELARELNFSVDEINQIRVENPNSLISQSFMLLKKWVTRDGKNATTDALTSVLTKINRIDIVTLLE,-0.265 ± 0.11
12,CAIVADHLGLSWTELARELNFSVDEINQIRVENPNSLISQSFMLLKKWVTRDGKNATTDALTSVLTKINRIDIVTLLE,-0.198 ± 0.23
13,VAIVADHLGLSWTELARELNFSVDEINQIRVENPNSLISQSFMLLKKWVTRDGKNATTDALTSVLTKINRIDIVTLLE,-0.151 ± 0.08
14,MHIVADHLGLSWTELARELNFSVDEINQIRVENPNSLISQSFMLLKKWVTRDGKNATTDALTSVLTKINRIDIVTLLE,-0.033 ± 0.077
15,MDIVADHLGLSWTELARELNFSVDEINQIRVENPNSLISQSFMLLKKWVTRDGKNATTDALTSVLTKINRIDIVTLLE,0.173 ± 0.074
16,MPIVADHLGLSWTELARELNFSVDEINQIRVENPNSLISQSFMLLKKWVTRDGKNATTDALTSVLTKINRIDIVTLLE,-0.193 ± 0.057
17,MLIVADHLGLSWTELARELNFSVDEINQIRVENPNSLISQSFMLLKKWVTRDGKNATTDALTSVLTKINRIDIVTLLE,-0.126 ± 0.067
18,MMIVADHLGLSWTELARELNFSVDEINQIRVENPNSLISQSFMLLKKWVTRDGKNATTDALTSVLTKINRIDIVTLLE,-0.175 ± 0.1
19,MRIVADHLGLSWTELARELNFSVDEINQIRVENPNSLISQSFMLLKKWVTRDGKNATTDALTSVLTKINRIDIVTLLE,0.149 ± 0.044
20,MNIVADHLGLSWTELARELNFSVDEINQIRVENPNSLISQSFMLLKKWVTRDGKNATTDALTSVLTKINRIDIVTLLE,0.08 ± 0.16
21,MFIVADHLGLSWTELARELNFSVDEINQIRVENPNSLISQSFMLLKKWVTRDGKNATTDALTSVLTKINRIDIVTLLE,-0.035 ± 0.11
22,MYIVADHLGLSWTELARELNFSVDEINQIRVENPNSLISQSFMLLKKWVTRDGKNATTDALTSVLTKINRIDIVTLLE,-0.037 ± 0.21
23,MQIVADHLGLSWTELARELNFSVDEINQIRVENPNSLISQSFMLLKKWVTRDGKNATTDALTSVLTKINRIDIVTLLE,0.058 ± 0.072
24,MKIVADHLGLSWTELARELNFSVDEINQIRVENPNSLISQSFMLLKKWVTRDGKNATTDALTSVLTKINRIDIVTLLE,-0.095 ± 0.2

row,Variant,abundance fitness
1,MEIVADHLGLSWTELARELNFSVDEINQIRVENPNSLISQSFMLLKKWVTRDGKNATTDALTSVLTKINRIDIVTLLE,0.224 ± 0.084
2,MVIVADHLGLSWTELARELNFSVDEINQIRVENPNSLISQSFMLLKKWVTRDGKNATTDALTSVLTKINRIDIVTLLE,-0.146 ± 0.049
3,MGIVADHLGLSWTELARELNFSVDEINQIRVENPNSLISQSFMLLKKWVTRDGKNATTDALTSVLTKINRIDIVTLLE,0.14 ± 0.051
4,MWIVADHLGLSWTELARELNFSVDEINQIRVENPNSLISQSFMLLKKWVTRDGKNATTDALTSVLTKINRIDIVTLLE,0.169 ± 0.077
5,MCIVADHLGLSWTELARELNFSVDEINQIRVENPNSLISQSFMLLKKWVTRDGKNATTDALTSVLTKINRIDIVTLLE,-0.077 ± 0.1
6,MTIVADHLGLSWTELARELNFSVDEINQIRVENPNSLISQSFMLLKKWVTRDGKNATTDALTSVLTKINRIDIVTLLE,0.077 ± 0.06
7,MAIVLDHLGLSWTELARELNFSVDEINQIRVENPNSLISQSFMLLKKWVTRDGKNATTDALTSVLTKINRIDIVTLLE,-0.921 ± 0.19
8,MAIVTDHLGLSWTELARELNFSVDEINQIRVENPNSLISQSFMLLKKWVTRDGKNATTDALTSVLTKINRIDIVTLLE,-0.774 ± 0.18
9,MAIVCDHLGLSWTELARELNFSVDEINQIRVENPNSLISQSFMLLKKWVTRDGKNATTDALTSVLTKINRIDIVTLLE,-0.359 ± 0.12
10,MAIVWDHLGLSWTELARELNFSVDEINQIRVENPNSLISQSFMLLKKWVTRDGKNATTDALTSVLTKINRIDIVTLLE,-0.765 ± 0.13
11,MAIVVDHLGLSWTELARELNFSVDEINQIRVENPNSLISQSFMLLKKWVTRDGKNATTDALTSVLTKINRIDIVTLLE,-0.484 ± 0.068
12,MAIVHDHLGLSWTELARELNFSVDEINQIRVENPNSLISQSFMLLKKWVTRDGKNATTDALTSVLTKINRIDIVTLLE,-0.716 ± 0.43
13,MAIVYDHLGLSWTELARELNFSVDEINQIRVENPNSLISQSFMLLKKWVTRDGKNATTDALTSVLTKINRIDIVTLLE,-0.745 ± 0.34
14,MAIVPDHLGLSWTELARELNFSVDEINQIRVENPNSLISQSFMLLKKWVTRDGKNATTDALTSVLTKINRIDIVTLLE,-0.899 ± 0.26
15,MAIVRDHLGLSWTELARELNFSVDEINQIRVENPNSLISQSFMLLKKWVTRDGKNATTDALTSVLTKINRIDIVTLLE,-0.498 ± 0.076
16,MAIVIDHLGLSWTELARELNFSVDEINQIRVENPNSLISQSFMLLKKWVTRDGKNATTDALTSVLTKINRIDIVTLLE,-0.74 ± 0.31
17,MAIVKDHLGLSWTELARELNFSVDEINQIRVENPNSLISQSFMLLKKWVTRDGKNATTDALTSVLTKINRIDIVTLLE,-0.648 ± 0.18
18,MACVADHLGLSWTELARELNFSVDEINQIRVENPNSLISQSFMLLKKWVTRDGKNATTDALTSVLTKINRIDIVTLLE,-0.225 ± 0.12
19,MAGVADHLGLSWTELARELNFSVDEINQIRVENPNSLISQSFMLLKKWVTRDGKNATTDALTSVLTKINRIDIVTLLE,-0.506 ± 0.06
20,MAHVADHLGLSWTELARELNFSVDEINQIRVENPNSLISQSFMLLKKWVTRDGKNATTDALTSVLTKINRIDIVTLLE,-0.523 ± 0.17
21,MAVVADHLGLSWTELARELNFSVDEINQIRVENPNSLISQSFMLLKKWVTRDGKNATTDALTSVLTKINRIDIVTLLE,-0.05 ± 0.053
22,MAPVADHLGLSWTELARELNFSVDEINQIRVENPNSLISQSFMLLKKWVTRDGKNATTDALTSVLTKINRIDIVTLLE,-0.46 ± 0.087
23,MAKVADHLGLSWTELARELNFSVDEINQIRVENPNSLISQSFMLLKKWVTRDGKNATTDALTSVLTKINRIDIVTLLE,-0.27 ± 0.11
24,MALVADHLGLSWTELARELNFSVDEINQIRVENPNSLISQSFMLLKKWVTRDGKNATTDALTSVLTKINRIDIVTLLE,-0.027 ± 0.051

row,Variant,abundance fitness
1,MAYVADHLGLSWTELARELNFSVDEINQIRVENPNSLISQSFMLLKKWVTRDGKNATTDALTSVLTKINRIDIVTLLE,-0.486 ± 0.16
2,MADVADHLGLSWTELARELNFSVDEINQIRVENPNSLISQSFMLLKKWVTRDGKNATTDALTSVLTKINRIDIVTLLE,-0.489 ± 0.16
3,MASVADHLGLSWTELARELNFSVDEINQIRVENPNSLISQSFMLLKKWVTRDGKNATTDALTSVLTKINRIDIVTLLE,-0.411 ± 0.062
4,MAMVADHLGLSWTELARELNFSVDEINQIRVENPNSLISQSFMLLKKWVTRDGKNATTDALTSVLTKINRIDIVTLLE,-0.081 ± 0.096
5,MAQVADHLGLSWTELARELNFSVDEINQIRVENPNSLISQSFMLLKKWVTRDGKNATTDALTSVLTKINRIDIVTLLE,-0.33 ± 0.076
6,MARVADHLGLSWTELARELNFSVDEINQIRVENPNSLISQSFMLLKKWVTRDGKNATTDALTSVLTKINRIDIVTLLE,-0.321 ± 0.05
7,MAEVADHLGLSWTELARELNFSVDEINQIRVENPNSLISQSFMLLKKWVTRDGKNATTDALTSVLTKINRIDIVTLLE,-0.342 ± 0.083
8,MAISADHLGLSWTELARELNFSVDEINQIRVENPNSLISQSFMLLKKWVTRDGKNATTDALTSVLTKINRIDIVTLLE,-0.766 ± 0.22
9,MAIGADHLGLSWTELARELNFSVDEINQIRVENPNSLISQSFMLLKKWVTRDGKNATTDALTSVLTKINRIDIVTLLE,-0.889 ± 0.099
10,MAILADHLGLSWTELARELNFSVDEINQIRVENPNSLISQSFMLLKKWVTRDGKNATTDALTSVLTKINRIDIVTLLE,-0.397 ± 0.057
11,MAIIADHLGLSWTELARELNFSVDEINQIRVENPNSLISQSFMLLKKWVTRDGKNATTDALTSVLTKINRIDIVTLLE,-0.169 ± 0.17
12,MAIEADHLGLSWTELARELNFSVDEINQIRVENPNSLISQSFMLLKKWVTRDGKNATTDALTSVLTKINRIDIVTLLE,-1.01 ± 0.18
13,MAIKADHLGLSWTELARELNFSVDEINQIRVENPNSLISQSFMLLKKWVTRDGKNATTDALTSVLTKINRIDIVTLLE,-0.806 ± 0.29
14,MAIRADHLGLSWTELARELNFSVDEINQIRVENPNSLISQSFMLLKKWVTRDGKNATTDALTSVLTKINRIDIVTLLE,-0.925 ± 0.11
15,MAIWADHLGLSWTELARELNFSVDEINQIRVENPNSLISQSFMLLKKWVTRDGKNATTDALTSVLTKINRIDIVTLLE,-1.01 ± 0.38
16,MAIMADHLGLSWTELARELNFSVDEINQIRVENPNSLISQSFMLLKKWVTRDGKNATTDALTSVLTKINRIDIVTLLE,-0.963 ± 0.23
17,MAITADHLGLSWTELARELNFSVDEINQIRVENPNSLISQSFMLLKKWVTRDGKNATTDALTSVLTKINRIDIVTLLE,-0.291 ± 0.08
18,MAIAADHLGLSWTELARELNFSVDEINQIRVENPNSLISQSFMLLKKWVTRDGKNATTDALTSVLTKINRIDIVTLLE,-0.253 ± 0.073
19,MAIQADHLGLSWTELARELNFSVDEINQIRVENPNSLISQSFMLLKKWVTRDGKNATTDALTSVLTKINRIDIVTLLE,-0.659 ± 0.19
20,MAIPADHLGLSWTELARELNFSVDEINQIRVENPNSLISQSFMLLKKWVTRDGKNATTDALTSVLTKINRIDIVTLLE,-0.921 ± 0.15
21,MAIFADHLGLSWTELARELNFSVDEINQIRVENPNSLISQSFMLLKKWVTRDGKNATTDALTSVLTKINRIDIVTLLE,-0.789 ± 0.28
22,MAINADHLGLSWTELARELNFSVDEINQIRVENPNSLISQSFMLLKKWVTRDGKNATTDALTSVLTKINRIDIVTLLE,-0.663 ± 0.22
